IntAct's records for PubMed 18606998

B1: Transient receptor potential cation channel subfamily V member 5 (Oryctolagus cuniculus (Rabbit)), Q9XSM3 (parent)
chain: MGACPPKAKGPWAQLQKLLISWPVGEQDWEQYRDRVNMLQQERIRDSPLLQAAKENDLRLLKILLLNQSCDFQQRGAVGETALHVAALYDNLEAATLLMEAAPELAKEPALCEPFVGQTALHIAVMNQNLNLVRALLARGASVSARATGAAFRRSPHNLIYYGEHPLSFAACVGSEEIVRLLIEHGADIRAQDSLGNTVLHILILQPNKTFACQMYNLLLSYDEHSDHLQSLELVPNHQGLTPFKLAGVEGNTVMFQHLMQKRKHVQWTCGPLTSTLYDLTEIDSWGEELSFLELVVSSKKREARQILEQTPVKELVSFKWKKYGRPYFCVLASLYILYMICFTTCCIYRPLKLRDDNRTDPRDITILQQKLLQEAYVTHQDNIRLVGELVTVTGAVIILLLEIPDIFRVGASRYFGQTILGGPFHVIIITYASLVLLTMVMRLTNMNGEVVPLSFALVLGWCSVMYFARGFQMLGPFTIMIQKMIFGDLMRFCWLMAVVILGFASAFHITFQTEDPNNLGEFSDYPTALFSTFELFLTIIDGPANYSVDLPFMYCITYAAFAIIATLLMLNLFIAMMGDTHWRVAQERDELWRAQVVATTVMLERKMPRFLWPRSGICGYEYGLGDRWFLRVENHHDQNPLRVLRYVEAFKCSDKEDGQEQLSEKRPSTVESGMLSRASVAFQTPSLSRTTSQSSNSHRGWEILRRNTLGHLNLGLDLGEGDGEEVYHF

Variants of: B1
Conditions: with leg1_human LGALS1, P09382
Chain of leg1_human LGALS1, P09382 (P09382 whole entry): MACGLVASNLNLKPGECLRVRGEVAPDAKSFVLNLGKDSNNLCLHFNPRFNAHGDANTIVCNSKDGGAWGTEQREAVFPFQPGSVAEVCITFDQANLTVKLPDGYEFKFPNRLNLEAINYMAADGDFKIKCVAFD

Variant	effect of a mutation on the interaction
N358Q	disrupting interaction
